Columns and labels:
Conditions in all cases: 285 mM Tris-HCl pH 8.0, 0.14 mg/mL BSA, 1.43 mM DTT, 5% glycerol, 0.04 mg/mL poly(dI-dC), 3.06 mM EDTA, 10 uL, 30 min at 25 C, 6% PAGE in TAE pH 8.2
[1] = test system: T1, PhaR-His6 (Bradyrhizobium diazoefficiens USDA110), ORF:9916d0df; experiment: EMSA
T1 sequence: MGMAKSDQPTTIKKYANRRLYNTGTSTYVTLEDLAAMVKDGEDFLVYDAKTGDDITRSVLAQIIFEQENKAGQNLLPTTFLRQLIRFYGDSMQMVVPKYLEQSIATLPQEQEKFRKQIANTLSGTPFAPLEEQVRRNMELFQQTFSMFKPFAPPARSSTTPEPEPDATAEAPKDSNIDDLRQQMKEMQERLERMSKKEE

[2] = test system: T1, PhaR-His6 (Bradyrhizobium diazoefficiens USDA110), ORF:9916d0df; experiment: DNase I footprinting
[3] = test system: PhaR-His6 (Bradyrhizobium diazoefficiens USDA110); experiment: EMSA

CACAAGATGATGCTCGATCACTACCAGCAGACCAAGAATCTCCTGGTCAGCTACAGCCCGAAGAAGCTCGGCTTCTTCTGATCGGAACAGGAGCGGGCGGCGCCGTTCTGGCGCCGCTCGTTCCGGTAAACGGGACCTGGCCCGCACGGCGTTAGATTTGTTGCCTGATCAGCGCCAAAGATTTTCCAATATTTCGATCACGTTGCAGTGCGGCATAATGAATGTCGTGTCATGCCGCCGCGGTGCTTTCCAAGGGTGTTTGACTTGGGTTAGAGAGGACGAAAGTTTTCTCTGACCCGG (double strand) [pdhA promoter]
binding [1]: binds more weakly

CTAAGGTGATGTTCTCAAACGGCTTTTGGCCGCTTGCGGAAGCTGAACACGTCCAGGGAATCAAGGTAGGGGTCCGCGGTTTCCAAAAGCTTAAGGAACCCTTGCGGGAAACCCCGGGAATCTCTTCGGTTTGGATCTAGTTTTTGTGCGACGCACAAGATTCTTGACTTTTTTGTGCGTTGCACTAATTGTGGGCAGAGTCAGGGAGCCGGGGCTTCCCGACGCGAGCCAGGGAAAAGGATTCCGAAATGTTCAAGGTTGAAGACTTTCAGAGCTACGGGAAAGAGCAGTTC (double strand) [FAM-phaP1 promoter (footprint)]
binding [2]: binds

CTCTCACTTGCAAGACGCTGAGAACGGGAACCCGGCGGCCGATGCCGCAGGGCGGGAAGAGTACGCAACGCAACAAAATAAGCATTTTCAAAGGGGTCACGCTACCGTTTTGTGCGCCACGGTTAATCGGGCAGCAAAAACGT (double strand) [phaR promoter]
K half [1]: 110 nM

phaR promoter
K half ([3]; half of DNA in complex at highest concentration): 110 nM

ppc promoter
K half ([3]; about half of DNA shifted only at highest concentration): 110 nM

Reference: paper PMC6201568
